Measurements taken from the DeepSol protein solubility set.

experiment: soluble on expression in E. coli; label from the status in PepcDB or PDB records

| Sequence | soluble on expression in E. coli |
| --- | --- |
| MGSSHHHHHHSQDPNSLEVLFQGPMAGGRDRGDLAARQLVFLLPEHLKDASKKKKKSSLLFVKLANPHSGEGATYLIDMCLQQLFEIKVFKEKHHSWFINQSVQSGGLLHFATPMDPLFLLLHYLLKAGKEGKYQPLDQVVVDDTFPDCTLLLRFPELEKSLRHVTEEKEVNSKKYYKYSSEKTLKWLEKKVNQTVVALKANNVNVGARVQSSAYFSGGQVSRDKEEDYVRYAHGLISDYIPKELSDDLSKFLKLPEPPASLPNPPSKKLKLSDEPVEAKEDYTKFNTKDLKTGKKNSKMTAAQKALAKVDKSGMKSIDAFFGAKNKKTGKI | soluble |
| MGSSHHHHHHSSGENLYFQGHMNVLVIGRGGREHAIAWKAAQSPLVGKLYVAPGNPGIADVAELVHIDELDIEALVQFAKQQAIDLTIVGPEAPLASGIVDRFMAEGLRIFGPSQRAALIEGSKAFAKELMKKYGIPTADHAAFTSYEEAKAYIEQKGAPIVIKADGLAAGKGVTVAQTVEEALAAAKAALVDGQFGTAGSQVVIEEYLEGEEFSFMAFVNGEKVYPLAIAQDHKRAYDGDEGPNTGGMGAYSPVPQISDEMMDAALEAILRPAAKALAAEGRPFLGVLYAGLMATANGPKVIEFNARFGDPEAQVVLPRLKTDLVEAVLAVMDGKELELEWTDEAVLGVVLAAKGYPGAYERGAEIRGLDRISPDALLFHAGTKREGGAWYTNGGRVLLLAAKGETLAKAKEKAYEQLAAIDCDGLFYRRDIGRRAIERASAAYTRMKGR | soluble |
| MGSSHHHHHHSSGLVIRGSHMRIALMQHTARPLDPQHNLDLIDDAAARASEQGAQLLLTPELFGFGYVPSQICAQVSAEQVDAARSRLRGIARDRGIALVWSLPGPEGPEQRGITAELADEHGEVLASYQKVQLYGPEEKAAFVPGEQPPPVLSWGGRQLSLLVCYDVEFPEMVRAAAARGAQLVLVPTALAGDETSVPGILLPARAVENGITLAYANHCGPEGGLVFDGGSVVVGPAGQPLGELGVEPGLLVVDLPDQSQDAGSDSADYLQDRRAELHRNWL | soluble |
| MGSSHHHHHHSSGLVPRGSHGLVPRGSHMKKLKLHGFNNLTKSLSFCIYDICYAKTAEERDGYIAYIDELYNANRLTEILSETCSIIGANILNIARQDYEPQGASVTILVSEEPVDPKLIDKTEHPGPLPETVVAHLDKSHICVHTYPESHPEGGLCTFRADIEVSTCGVISPLKALNYLIHQLESDIVTIDYRVRGFTRDINGMKHFIDHEINSIQNFMSDDMKALYDMVDVNVYQENIFHTKMLLKEFDLKHYMFHTKPEDLTDSERQEITAALWKEMREIYYGRNMPAV | soluble |
| MGSSHHHHHHSSGLVPRGSHMAAMMSLNDFLSSVLPVSEQFEYLSLQSIPLETHAVVTPNKDDKRVPKSTIKTQHFFSLFHQGKVFFSLEVYVYVTLWDEADAERLIFVSKADTNGYCNTRVSVRDITKIILEFILSIDPNYYLQKVKPAIRSYKKISPELISAASTPARTLRILARRLKQSGSTVLKEIESPRFQQDLYLSFTCPREILTKICLFTRPASQYLFPDSSKNSKKHILNGEELMKWWGFILDRLLIECFQNDTQAKLRIPGEDPARVRSYLRGMKYPLWQVGDIFTSKENSLAVYNIPLFPDDPKARFIHQLAEEDRLLKVSLSSFWIELQERQEFKLSVTSSVMGISGYSLATPSLFPSSADVIVPKSRKQFRAIKKYITGEEYDTEEGAIEAFTNIRDFLLLRMATNLQSLTGKREHRERNQPVPASNINTLAITMLKPRKKAKALPKT | soluble |
| MGSSHHHHHHSSGLVPRGSHMASASAAGGQQSFDLLVIGGGSGGLACAKEAAQLGKKVAVADYVEPSPRGTKWGLGGTCVNVGCIPKKLMHQAALLGGMIRDAHHYGWEVAQPVQHNWKTMAEAVQNHVKSLNWGHRVQLQDRKVKYFNIKASFVDEHTVRGVDKGGKATLLSAEHIVIATGGRPRYPTQVKGALEYGITSDDIFWLKESPGKTLVVGASYVALECAGFLTGIGLDTTVMMRSIPLRGFDQQMSSLVTEHMESHGTQFLKGCVPSHIKKLPTNQLQVTWEDHASGKEDTGTFDTVLWAIGRVPETRTLNLEKAGISTNPKNQKIIVDAQEATSVPHIYAIGDVAEGRPELTPTAIKAGKLLAQRLFGKSSTLMDYSNVPTTVFTPLEYGCVGLSEEEAVALHGQEHVEVYHAYYKPLEFTVADRDASQCYIKMVCMREPPQLVLGLHFLGPNAGEVTQGFALGIKCGASYAQVMQTVGIHPTCSEEVVKLHISKRSGLEPTVTGCCG | soluble |
